From PMC9398908, “GLP-1-mediated delivery of tesaglitazar improves obesity and glucose metabolism in male mice” (Nature Metabolism, 2022)

Assays:
[1] = in vivo; design: species or system C57BL6J mice; settings: mouse
Experimental: (§1) Plasma concentration-time profiles were analysed in C57BL6J mice and Sprague Dawley rats by a non-compartmental method using sparse sampling in Pharsight Phoenix WinNonLin v.6.4 software, and the resulting terminal half-life (T1/2), maximum plasma concentration (Cmax), time for maximum plasma concentration (Tmax), and AUC from zero to last valid measurable concentration-time point (AUC0-t) were determined.

[2] = in vivo; design: species or system Sprague Dawley rats; settings: Sprague Dawley, rat
Experimental: as §1

[3] = test system: C57BL/6J DIO mice; experiment: Urinary albumin:creatinine ratio in DIO mice (Extended Data Fig. 2g); assay type: in vivo, mouse; settings: 14-day treatment, 50 nmol kg−1 per day, in words
Text: Frozen urine samples from heterozygous GIPR^dn mice in a CD1 background (n = 3) served as positive controls. […] For each treatment group, uACR was computed as a ratio of urinary albumin (mg ml^−1) to urinary creatinine (mg ml^−1).

[4] = C57BL6J, 100 nmol/kg, concentration (PK, Extended Data Fig. 1c)
[5] = 100 nmol/kg, concentration (PK, Extended Data Fig. 1c)
[6] = male, 100 nmol/kg, concentration (PK, Extended Data Fig. 1c)
[7] = male, C57BL6/J, 100 nmol/kg, concentration (PK, Extended Data Fig. 1c)

Compound: CC[C@H](C)[C@H](NC(=O)[C@H](Cc1ccccc1)NC(=O)[C@H](CCC(=O)O)NC(=O)[C@H](CCCCN)NC(=O)[C@H](C)NC(=O)[C@H](C)NC(=O)[C@H](CCC(N)=O)NC(=O)[C@H](CCC(=O)O)NC(=O)[C@H](CCC(=O)O)NC(=O)[C@H](CC(C)C)NC(=O)[C@H](Cc1ccc(O)cc1)NC(=O)[C@H](CO)NC(=O)[C@H](CO)NC(=O)[C@@H](NC(=O)[C@H](CC(=O)O)NC(=O)[C@H](CO)NC(=O)[C@@H](NC(=O)[C@H](Cc1ccccc1)NC(=O)[C@@H](NC(=O)CNC(=O)[C@H](CCC(=O)O)NC(=O)C(C)(C)NC(=O)[C@@H](N)Cc1c[nH]cn1)[C@@H](C)O)[C@@H](C)O)C(C)C)C(=O)N[C@@H](C)C(=O)N[C@@H](Cc1c[nH]c2ccccc12)C(=O)N[C@@H](CC(C)C)C(=O)N[C@H](C(=O)N[C@@H](CCCCN)C(=O)NCC(=O)NCC(=O)N1CCC[C@H]1C(=O)N[C@@H](CO)C(=O)N[C@@H](CO)C(=O)NCC(=O)N[C@@H](C)C(=O)N1CCC[C@H]1C(=O)N1CCC[C@H]1C(=O)N1CCC[C@H]1C(=O)N[C@@H](CO)C(=O)N[C@@H](CCCCN)C(N)=O)C(C)C [GLP-1RA, GLP-1 Aib2 Glu16 CEX Lys40]
- level at time molar at 0.5 h [1, 4]: 435 nM
- level at time molar at 1 h [1, 4]: 219 nM
- AUC(0-t) ([1]; male, C57BL6/J): 0.399 µM·h
- Cmax ([1]; male, C57BL6/J): 361 nM
- level at time molar at 4 h [2, 5]: 10.7 nM
- AUC(0-t) ([2]; male): 0.131 µM·h
- Cmax ([2]; male): 41.3 nM
- half-life ([2]; male): 2.13 h
- level at time molar at 0.5 h [2, 6]: 30.7 nM
- level at time molar at 2 h [2, 6]: 26.1 nM
- level at time molar at 4 h [2, 6]: 15.8 nM

Compound: CCO[C@@H](Cc1ccc(OCCc2ccc(OS(C)(=O)=O)cc2)cc1)C(=O)N[C@@H](CCC(=O)NCCCC[C@H](NC(=O)[C@H](CO)NC(=O)[C@@H]1CCCN1C(=O)[C@@H]1CCCN1C(=O)[C@@H]1CCCN1C(=O)[C@H](C)NC(=O)CNC(=O)[C@H](CO)NC(=O)[C@H](CO)NC(=O)[C@@H]1CCCN1C(=O)CNC(=O)CNC(=O)[C@H](CCCCN)NC(=O)[C@@H](NC(=O)[C@H](CC(C)C)NC(=O)[C@H](Cc1c[nH]c2ccccc12)NC(=O)[C@H](C)NC(=O)[C@@H](NC(=O)[C@H](Cc1ccccc1)NC(=O)[C@H](CCC(=O)O)NC(=O)[C@H](CCCCN)NC(=O)[C@H](C)NC(=O)[C@H](C)NC(=O)[C@H](CCC(N)=O)NC(=O)[C@H](CCC(=O)O)NC(=O)[C@H](CCC(=O)O)NC(=O)[C@H](CC(C)C)NC(=O)[C@H](Cc1ccc(O)cc1)NC(=O)[C@H](CO)NC(=O)[C@H](CO)NC(=O)[C@@H](NC(=O)[C@H](CC(=O)O)NC(=O)[C@H](CO)NC(=O)[C@@H](NC(=O)[C@H](Cc1ccccc1)NC(=O)[C@@H](NC(=O)CNC(=O)[C@H](CCC(=O)O)NC(=O)C(C)(C)NC(=O)[C@@H](N)Cc1c[nH]cn1)[C@@H](C)O)[C@@H](C)O)C(C)C)[C@@H](C)CC)C(C)C)C(N)=O)C(=O)O [GLP-1RA/tesaglitazar, GLP-1 Aib2 Glu16 CEX Lys40/tesaglitazar conjugate]
- level at time molar at 10 min [1, 4]: 246 nM
- level at time molar at 0.5 h [1, 4]: 314 nM
- level at time molar at 1 h [1, 4]: 131 nM
- AUC(0-t) ([1]; male, C57BL6/J): 0.505 µM·h
- Cmax ([1]; male, C57BL6/J): 278 nM
- half-life ([1]; male, C57BL6/J): 1.1 h
- level at time molar at 2 h [1, 7]: 87.6 nM
- level at time molar at 4 h [1, 7]: 21.6 nM
- level at time molar at 4 h [2, 5]: 20.5 nM
- AUC(0-t) ([2]; male): 0.174 µM·h
- Cmax ([2]; male): 37.5 nM
- half-life ([2]; male): 2.54 h
- level at time molar at 10 min [2, 6]: 41.7 nM
- level at time molar at 1 h [2, 6]: 40.3 nM
- level at time molar at 2 h [2, 6]: 26.8 nM
- level at time molar at 4 h [2, 6]: 21.2 nM
- urinary albumin:creatinine ratio [3]: likewise not changed
